Results published in patent US20220049012A1 (NAVI BIO THERAPEUTICIS, published 2022).
Numbering of substitutions follows the chain as printed.

B1: NAVICA9S1 (scFv, V domains shown)
VH: AVTLDESEGGLQTPGGALSLVCKASGFTFSSYAMNWVRQAPGKGLEFVAGITNTGSSAGYGAAVKGRATISRDNGQSTVRLQLNNLRAEDTATYFCTKSYGGWCDHACAPDDIDTWGHGTEVIVSS
VL: ALTQPSSVSANPGETVKITCSGGGKNYGWYQQKSPGSAPVTVIYLNDKRPSNIPSRFSGSKSGSTHTLTITGVQAEDEAVYFCGSRDSSPTFGAGTTLTVL
notes: Chicken scFv from phage display, expressed in E. coli; also called anti-CAIX scFv NAVICA9S1; clone NAVICA9S1; not shown: linker; tags from the pComb3X vector (purified on Ni2+ Sepharose, detected with anti-HA)
B2: NAVICA9S2 (scFv, V domains shown)
VH: AVTLDESGGGLQTPRGALSLVCKASGFTFSSFNMFWVRQAPGKGLEYVAAISSDGSRSRYGSAVQGRATISRDNGQSTVRLQLNSLRAEDTGTYYCAKRPYSGCTSNNFCFNAAYIDVWGHGTEVIVSS
VL: ALTQPSSVSANLGETVEITCSGSSGSYGWYQQKSPGSAPVTVIYYNDKRPSDIPSRFSGSKSGSTGTLTITGVQAEDEAVYYCGSADRSGAGIFGAGTTLTVL
notes: Chicken scFv; also called anti-CAIX scFv NAVICA9S2; clone NAVICA9S2; not shown: linker; tags from the pComb3X vector (purified on Ni2+ Sepharose, detected with anti-HA)
B3: NAVICA9L2 (scFv, V domains shown)
VH: AVTLDESGGGLQTPGGGLSLVCKASGFTFSSYAIQWVRQAPGKGLEWVAGISDDGSWTGYGAAVKGRATISRDNGQSTMRLQLNNLRAEDTGIYYCAKGAGTGYCANRSFGCASTIDAWGHGTEVIVSS
VL: B2 VL with S24R, D47V
notes: Chicken scFv; also called anti-CAIX scFv NAVICA9L2; clone NAVICA9L2; not shown: linker; tags from the pComb3X vector (purified on Ni2+ Sepharose, detected with anti-HA)
B4: NAVICA9L3 (scFv, V domains shown)
VH: B2 VH with R15G
VL: B2 VL
notes: Chicken scFv; also called anti-CAIX scFv NAVICA9L3; clone NAVICA9L3; not shown: linker; tags from the pComb3X vector (purified on Ni2+ Sepharose, detected with anti-HA)

Key:
[1] = biological target: recombinant CAIX extra-cellular domain (UniProt Q16790 38-414); assay: competitive ELISA (Friguet), soluble CAIX ECD against coated CAIX ECD
Description: To determine the binding affinity of the anti-CAIX scFvs, competitive ELISA was performed. The CAIX ECD fragment proteins in 2-fold serial dilution (100-13 μg/ml) were pre-incubated with anti-CAIX scFvs (NAVICA9S1: 0.62 μg/ml, NAVICA9S2: 0.32 μg/ml,
NAVICA9L2: 0.16 μg/ml, NAVICA9L3: 0.32 μg/ml) at 1:1 volume ratio at room temperature for 1 hour. The mixtures were then added into ELISA plate coated with CAIX ECD fragment proteins (0.25 or 0.5 μg/well). After 1 hour incubation, the mouse anti-HA IgG (1:5,000) and HRP-conjugated rabbit anti-mouse IgG (1:10,000) were added as the secondary and third antibodies. Following the incubation and washing, 3,3′,5,5′-Tetramethylbenzidine (TMB) was added for color development, which was stopped by HCl and detected using an ELISA plate reader. The Kd values of scFvs were estimated and expressed by molarity (M) as described by Friguet et al. (J. Immunol. Methods, 77: 305-319, 1985). N/A: not available.

[2] = biological target: T1, recombinant CAIX fragment 3 (UniProt Q16790 228-414, limits assumed); assay: binding to recombinant CAIX fragments, epitope mapping
T1 construct: domain: fragment 3(F3); Expressed in E. coli from pET-21a(+) or pET-32a(+); also called F3; CAIX F3

[3] = biological target: recombinant CAIX fragment 2 (UniProt Q16790 154-353); assay: as above

| Binder | Kd [1] [nM] | binding result [2] | binding result [3] |
| --- | --- | --- | --- |
| B1 | 64.3 | – | – |
| B2 | 11.5 | – | – |
| B3 | 140 | no binding | no binding |
| B4 | 9.26 | – | – |
